Data on 3 substances can be found in paper PMC2791401.

For this test, the target named is p190RhoGAP-A (endogenous) (human (endogenous in HeLa)) (UniProt Q9NRY4). In words: co-IP.
Chain of UniProt Q9NRY4 (Q9NRY4 whole entry): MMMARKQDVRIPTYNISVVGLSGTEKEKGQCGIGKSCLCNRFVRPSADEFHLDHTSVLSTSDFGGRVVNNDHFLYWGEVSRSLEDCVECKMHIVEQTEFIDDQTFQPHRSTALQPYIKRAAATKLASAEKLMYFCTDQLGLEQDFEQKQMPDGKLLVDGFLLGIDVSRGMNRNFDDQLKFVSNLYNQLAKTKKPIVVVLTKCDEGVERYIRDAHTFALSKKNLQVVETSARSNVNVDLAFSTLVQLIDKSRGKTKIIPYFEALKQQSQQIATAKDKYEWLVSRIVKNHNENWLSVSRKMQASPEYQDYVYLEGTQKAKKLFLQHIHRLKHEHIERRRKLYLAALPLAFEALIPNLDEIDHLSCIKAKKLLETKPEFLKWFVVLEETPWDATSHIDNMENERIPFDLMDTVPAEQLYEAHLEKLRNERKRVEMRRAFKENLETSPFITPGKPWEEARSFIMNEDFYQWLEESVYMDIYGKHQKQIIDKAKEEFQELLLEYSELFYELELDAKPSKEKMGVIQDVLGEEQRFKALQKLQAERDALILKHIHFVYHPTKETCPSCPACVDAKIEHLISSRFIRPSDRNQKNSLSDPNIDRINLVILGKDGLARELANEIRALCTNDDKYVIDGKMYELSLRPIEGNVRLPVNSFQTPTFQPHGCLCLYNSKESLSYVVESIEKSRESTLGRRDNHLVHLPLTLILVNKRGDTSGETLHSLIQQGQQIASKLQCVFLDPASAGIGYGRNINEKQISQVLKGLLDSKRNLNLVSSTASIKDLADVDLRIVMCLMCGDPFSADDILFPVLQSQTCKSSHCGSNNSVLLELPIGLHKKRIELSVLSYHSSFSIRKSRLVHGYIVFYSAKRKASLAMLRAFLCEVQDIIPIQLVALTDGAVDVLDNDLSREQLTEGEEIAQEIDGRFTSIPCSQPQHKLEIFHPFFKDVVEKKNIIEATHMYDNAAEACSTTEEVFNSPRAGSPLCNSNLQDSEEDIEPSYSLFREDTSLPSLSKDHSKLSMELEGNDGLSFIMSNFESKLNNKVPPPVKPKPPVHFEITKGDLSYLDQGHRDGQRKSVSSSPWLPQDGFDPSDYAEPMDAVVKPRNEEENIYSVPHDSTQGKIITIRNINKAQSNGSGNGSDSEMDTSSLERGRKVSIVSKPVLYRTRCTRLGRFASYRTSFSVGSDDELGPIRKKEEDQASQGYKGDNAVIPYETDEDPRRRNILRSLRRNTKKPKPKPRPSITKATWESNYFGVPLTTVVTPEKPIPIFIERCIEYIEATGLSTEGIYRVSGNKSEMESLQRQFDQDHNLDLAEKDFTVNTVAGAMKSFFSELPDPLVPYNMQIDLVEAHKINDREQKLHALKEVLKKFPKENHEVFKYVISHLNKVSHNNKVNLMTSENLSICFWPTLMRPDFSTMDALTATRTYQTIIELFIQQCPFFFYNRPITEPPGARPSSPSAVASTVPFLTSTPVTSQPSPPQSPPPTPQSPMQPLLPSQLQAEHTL

For “FLAG-tagged ECT2C (amino acids 414-883) (domain or fragment)”, the IP/Total (amount co-immunoprecipitated by anti-p190 vs. total protein expressed) was determined as 1.5.

Regarding “FLAG-tagged ECT2N (amino acids 1-334) (domain or fragment)”, the IP/WL (amount co-immunoprecipitated by anti-p190 vs. total protein expressed) was 0.2.

For “FLAG-tagged wild type ECT2 (pCEV29F3-ECT2) (natural protein)”, the abundance of the complex, percent of total p190 or ECT2 is 2 to 4%.
